Measurements published in patent US20220002397A1 (Hoffmann-La Roche, published 2022).
Substitutions are numbered along the chain they refer to. Numbers in names are those of the source.

T1: VEGF-121-His (inhouse production) (human, UniProt P15692 207-395)
T1 construct: also called hVEGF-A121; VEGF-A121; not shown: His tag
T1 sequence: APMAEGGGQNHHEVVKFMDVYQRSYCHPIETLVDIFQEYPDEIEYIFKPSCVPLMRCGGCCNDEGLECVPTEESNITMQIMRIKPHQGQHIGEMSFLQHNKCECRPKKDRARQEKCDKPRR

B1: VEGF-P1AD8674 Fab (Fab, V domains shown)
VH: EVQLVESGGGLVQPGGSLRLSCAASGFTFTNYAMTWVRQAPGKGLEWVSSIGNGGGIYTYYADSVKGRFTISRNNAENTLYLQMNSLRAEDTAVYYCAKGDNLFDSWGPGTLVTVSS
VL: DIQMTQSPASLSASVGDRVTITCRASQSIYSSLNWYQQKPGKAPKLLIYASTLQSGVPSRFSGSASGTDFTLTISSLQPEDVATYYCQQYQNFPRTFGQGTKLEIKR
notes: Variant of VEGF-0089 with D72N, S74A, K75E (Kabat) in H-FR3
B2: VEGF-0089 Fab fragment (Fab, V domains shown)
VH: B1 VH with N74D, A76S, E77K
VL: B1 VL
notes: Parent antibody; also called antibody VEGF-0089
B3: VEGF-0112 Fab (Fab, V domains shown)
VH: B1 VH with N53S, N74D, A76S, E77K
VL: B1 VL
notes: Variant of VEGF-0089 with N52aS (Kabat) in H-CDR2

Columns and labels:
[1] = target: T1, VEGF-121-His (inhouse production); experiment: inhibition ELISA: antibody pre-incubated with 0.34 nM VEGF-121-His, binding to coated biotinylated VEGF-R1 detected
Method: 384 well streptavidin plates (Nunc/Microcoat #11974998001) were coated with 0.25 μg/mlbiotinylated VEGF-R1 or […] biotinylated VEGF-R2 (inhouse production, each 25 μl/well in DPBS (1×) (PAN, #PO4-36500)). Plates were incubated for 1 h at room temperature. […] This pre-incubation step was carried out in 384 well PP plates (Weidmann medical technology, #23490-101) in 1×OSEP buffer (bidest water, 10×, Roche, #11 666 789 001+0.5% Bovine Serum Albumin Fraction V, fatty acid free, Roche, #10 735 086 001+0.05% Tween 20). Plates were incubated for 1 h at room temperature. After washing VEGF-R1/VEGF-R2 coated streptavidin plates 3 times with 90 μl/well PBST-buffer (bidest water, 10×PBS Roche #11666789001+0.1% Tween 20), 25 μl of samples from the VEGF-antibody pre-incubation plate were transferred to coated strepavidin plates which were subsequently incubated for 1 h at room temperature. After washing 3 times with 90 μl/well PBST-buffer, 25 μl/well detection antibody (anti His POD, Bethyl, #A190-114P, 1:12000) in 1×OSEP was added. After incubation for 1 h at room temperature plates were washed 3 times with 90 μl PBST-buffer. 25 μl TMB (Roche, #11 835 033 001) was added to all wells simultaneously. After 10 min incubation at room temperature, signals were detected at 370 nm/492 nm on a Tecan Safire 2 Reader. […]

[2] = target: T1, VEGF-121-His (inhouse production); experiment: SPR, hVEGF-A121 captured by anti-His antibody, Fab as analyte, 37 C
Method: (§1) An anti-His capturing antibody (GE Healthcare 28995056) was immobilized to a Series S Sensor Chip C1 (GE Healthcare 29104990) using standard amine coupling chemistry resulting in a surface densitiy of 500-1000 resonance units (RU). As running and dilution buffer, HBS-P+(10 mM HEPES, 150 mM NaCl pH 7.4, 0.05% Surfactant P20) was used, the measurement temperature was set to 25° C. and 37° C., respectively. hVEGF-A121 was captured to the surface with resulting capture levels ranging from 5 to 35 RU. Dilution series of anti-VEGF antibodies (0.37-30 nM) were injected for 120 s, dissociation was monitored for at least 600 s at a flow rate of 30 μl/min. The surface was regenerated by injecting 10 mM Glycine pH 1.5 for 60 s. Bulk refractive index differences were corrected by subtracting blank injections and by subtracting the response obtained from the control flow cell without captured hVEGF-A121. Rate constants were calculated using the Langmuir 1:1 binding model within the Biacore Evaluation software.
(§2) The affinity of the antibodies was determined by SPR using the same methods as described in Example 1.

[3] = target: T1, VEGF-121-His (inhouse production); experiment: SPR, hVEGF-A121 captured by anti-His antibody, Fab as analyte, 25 C; 25 C; Table 3 (later example)
Method: as §1, §2

[4] = target: T1, VEGF-121-His (inhouse production); experiment: SPR (Biacore), hVEGF-A121 captured by anti-His antibody on C1 chip, Fab as analyte, 1:1 Langmuir model, 25 C; 25 C; Example 1
Method: VEGF-binding of antibody VEGF-0089 Fab fragment was assessed by surface plasmon resonance (SPR) as described below.
as §1

[5] = target: T1, VEGF-121-His (inhouse production); experiment: SPR, hVEGF-A121 captured by anti-His antibody, Fab as analyte, 25 C
Method: as §1, §2

| Binder | binding result [1] | Kd [2] [nM] | Kd [3] [nM] | Kd [4] [nM] | Kd [5] [nM] |
| --- | --- | --- | --- | --- | --- |
| B1 | binds | – | – | – | – |
| B2 | – | 0.11 | 0.143 | 0.134 | – |
| B3 | – | 0.085 | – | – | 0.074 |
